Test results taken from publication PMC10471632, “Protein engineering and iterative multimodule optimization for vitamin B6 production in Escherichia coli” (Nature Communications, 2023).

Assays:
Experiment in all cases: NADH formation at A340
NADH formation at A340 [1] = substrate: NC(=O)c1ccc[n+]([C@@H]2O[C@H](COP(=O)(O)OP(=O)(O)OC[C@H]3O[C@@H](n4cnc5c(N)ncnc54)[C@H](O)[C@@H]3O)[C@@H](O)[C@H]2O)c1; format: biochemical, Brumicola nitratireducens; details: E4P 8 mM, 50 mM PPi buffer pH 8.6, 1 mM DTT, 37 °C, varied: cofactor
Excerpt: (§1) NADH formation at A340 on […]

NADH formation at A340 [2] = substrate: O=C[C@H](O)[C@H](O)COP(=O)(O)O; format: biochemical, Brumicola nitratireducens; details: NAD+ 2 mM, 50 mM PPi buffer pH 8.6, 1 mM DTT, 37 °C
Excerpt: as §1

NADH formation at A340 [3] = substrate: NC(=O)c1ccc[n+]([C@@H]2O[C@H](COP(=O)(O)OP(=O)(O)OC[C@H]3O[C@@H](n4cnc5c(N)ncnc54)[C@H](O)[C@@H]3O)[C@@H](O)[C@H]2O)c1; format: biochemical, Escherichia coli; details: E4P 8 mM, 50 mM PPi buffer pH 8.6, 1 mM DTT, 37 °C, varied: cofactor
Excerpt: (§2) NADH formation at A340 on Eco_Epd

NADH formation at A340 [4] = substrate: O=C[C@H](O)[C@H](O)COP(=O)(O)O; format: biochemical, Escherichia coli; details: NAD+ 2 mM, 50 mM PPi buffer pH 8.6, 1 mM DTT, 37 °C
Excerpt: as §2

Protein	Km (NADH formation at A340 [1])	kcat (NADH formation at A340 [1])	kcat/Km (NADH formation at A340 [1])	Km (NADH formation at A340 [2])	kcat (NADH formation at A340 [2])	kcat/Km (NADH formation at A340 [2])	Km (NADH formation at A340 [3])	kcat (NADH formation at A340 [3])	kcat/Km (NADH formation at A340 [3])	Km (NADH formation at A340 [4])	kcat (NADH formation at A340 [4])	kcat/Km (NADH formation at A340 [4])
Gni_Epd (Brumicola nitratireducens FR1064) (protein) MLRIAINGFGRIGRNVLRALYESGRNDQIQVVAINEIASPEGVAHLLKYDTAHGRFKGTVDYTDQCLIVNGDKIPLFQKNNIEELAWSTVNVDIVLECTGVFSSRESAQQHIDNGARKVLFSQPCGQDMDATIVFGVNHKTLKPSDVIVSNGSCTTNCIVPIIQVLDEAFGVESGTITTIHSSMNDQQVIDAYHPDLRRTRAASQSIIPVDTRLHVGIERILPRFAGKFEAIAVRVPTINVTAMDLSVTLRDKVTVSDVNAVLKKSAHGELKRIIDYTEEPLVSVDFNHDPHSSIVDGTQTRVSHKQLVKTLVWCDNEWGFANRMLDTALHMHQLDS	51 µM	0.313 s⁻¹	6140 M⁻¹ s⁻¹	737 µM	0.323 s⁻¹	438 M⁻¹ s⁻¹						
Eco_Epd (Escherichia coli K-12) (protein) TVRVAINGFGRIGRNVVRALYESGRRAEITVVAINELADAAGMAHLLKYDTSHGRFAWEVRQERDQLFVGDDAIRVLHERSLQSLPWRELGVDVVLDCTGVYGSREHGEAHIAAGAKKVLFSHPGSNDLDATVVYGVNQDQLRAEHRIVSNASCTTNCIIPVIKLLDDAYGIESGTVTTIHSAMHDQQVIDAYHPDLRRTRAASQSIIPVDTKLAAGITRFFPQFNDRFEAIAVRVPTINVTAIDLSVTVKKPVKANEVNLLLQKAAQGAFHGIVDYTELPLVSVDFNHDPHSAIVDGTQTRVSGAHLIKTLVWCDNEWGFANRMLDTTLAMATVAFR							717 µM	3.23 s⁻¹	4510 M⁻¹ s⁻¹	969 µM	0.15 s⁻¹	155 M⁻¹ s⁻¹
